Measured values from patent US20160115199A1 (AADIGEN, published 2016).
Where no end group is shown, it is not given here.

Key:
HIV integrase = HIV integrase (HIV-1, UniProt P03367 1160-1447); assay: cell-based or functional assay
cdk2/cyclin A complex = cdk2/cyclin A complex (UniProt P24941 1-298; P20248 1-432); assay: cell-based or functional assay

Binder	IC50 of viral replication (RT activity) on PBMC infected by HIV-1 LAI, PC4D delivered by Short 4 (HIV integrase)	IC50 of viral replication (RT activity) on PBMC infected by HIV-1 LAI, PC4D delivered by VEPEP-3i (HIV integrase)	IC50 of viral replication (RT activity) on PBMC infected by HIV-1 LAI, PC4D delivered by VEPEP-3j (HIV integrase)	IC50 of cell proliferation, Hela cells, C4 delivered by VEPEP-4 (cdk2/cyclin A complex)	IC50 of cell proliferation, MCF7 cells, C4 delivered by VEPEP-4 (cdk2/cyclin A complex)
RWTEWEWW (also: cyclic, mode of cyclisation not given here) [PC4 cyclic peptide (RWTEWEWW)]	0.37 nM	0.24 nM	0.17 nM		
KKQVRMAHLVLT (also: FITC or Cy5 label, position not given here) [C4 peptide (KKQVRMAHLVLT)]				50 nM	60 nM
